Source: publication PMC5882710, “Amphotericin B-conjugated polypeptide hydrogels as a novel innovative strategy for fungal infections” (Royal Society Open Science, 2018)
Converted amounts (≈) assume the structure as drawn. Read-outs that look alike come from different tables or passages of the source.

How the values were obtained:
Candida albicans [1] = assay: microbe, parasite or virus in culture; format: cell-based
Experimental: (§1) The minimum inhibitory concentration (MIC) of the Dex, AmB, Nap-FFDKY, Npx-FFDKY, Fmoc-FFDKY, Nap-AmB, Npx-AmB and Dex-AmB hydrogels was determined by a serial 2-fold dilution of test samples. Fourteen different concentrations of drugs and hydrogels were prepared in DMF solution. One millilitre of the fungal strain […] colony-forming unit (CFU)/tube was inoculated into each tube containing different concentrations (1 ml) of test samples and incubated at 28°C (200 rpm) for 24 h. The MIC was defined as the minimum concentration of the sample inhibiting the visible growth of the microorganism. The experiment was repeated at least three times. Based on the values of MIC, 0.1 ml of the fungal strain containing different concentrations of test samples which inhibited the visible growth of the microorganism was subcultivated on the Sabouraud's dextrose agar plates, and incubated at 28°C for 48 h. The minimum bactericidal concentration (MBC) determination was defined as the minimum concentration of the sample sterilizing the visible growth of the microorganism (lower than 5 CFU/plate). The experiment was repeated at least three times. Based on the values of MIC, the fungal strain containing 1 × MIC and 2 × MIC concentrations of test samples was incubated at 28°C. A test suspension containing 0.1 ml was taken out and used to evaluate fungus colonies at 0, 1, 2, 4, 6, 8, 12 and 24 h.

Candida albicans [2] = assay: Time-kill curves at 1 x MIC and 2 x MIC; format: cell-based; settings: C. albicans, 28°C, n = 3; for time for which antifungal activity is exhibited in time-kill curves: sampled 0, 1, 2, 4, 6, 8, 12 and 24 h
Experimental: as §1

[3] = low bioavailability; cited from earlier work
Description: Invasive fungal infection has a significant influence on animal and plant life, which is a major cause of mortality that kills approximately 1.5 million people every year. Amphotericin B (AmB) is a broad-spectrum antifungal macrolide polyene antibiotic. Its antifungal effect is exerted by forming complexes with membrane sterols to allow the increase in the permeability of the fungal membrane. AmB is the most common antifungal agent used in clinical practice despite strong side-effects with low solubility and low bioavailability (less than 0.9%). Many researchers attempt ...

[4] = In vitro drug release of AmB or Dex from hydrogels; format: physicochemical; settings: for final drug release percentage of AmB after 12 h: 0.3 ml PBS pH 7.4 containing trypsin 1 µg ml^−1, 37°C, HPLC-UV 383 nm; for final drug release percentage of AmB after 12 h / final drug release percentage of Dex after 12 h: n = 3; for final drug release percentage of Dex after 12 h / constant release rate of AmB / constant release rate of Dex: PBS pH 7.4 with trypsin 1 µg ml^−1, 37°C; for final drug release percentage of Dex after 12 h: HPLC-UV 240 nm; for constant release rate of AmB / constant release rate of Dex: entire measurement period (12 h); for diffusion exponent n of AmB release (Mt/M∞ = k·t^n) / diffusion exponent n of Dex release (Mt/M∞ = k·t^n) / rate constant k of AmB release (Mt/M∞ = k·t^n) / rate constant k of Dex release (Mt/M∞ = k·t^n): fit of release data, PBS pH 7.4, 37°C
Experimental: The 2.0 wt%, 3.0 wt% and 4.0 wt% of Nap-AmB, Npx-AmB and Dex-AmB hydrogels within the 0.3 ml PBS solution containing trypsin (1 µg ml^−1) were prepared for drug release study. A quantity of 0.2 ml of the upper buffer solution was taken out and used to run HPLC at every 30 min and 0.2 ml of fresh PBS buffer solution containing trypsin (1 µg ml^−1) was added back each time. The experiments were conducted at 37°C. The areas of peaks in HPLC spectra were used to determine the percentage of AmB or Dex released from their corresponding hydrogels. The liquid chromatography system (Agilent 1200 series, America) comprised Degasser G1322A, Quaternary pump G1312B, Thermostated auto sampler HiP-ALS G1367C, column oven G1316A and ultraviolet detector G1314A. Separation was achieved using a SepaxGP-C18 reversed-phase column (250 mm × 4.6 mm internal diameter, 5 µm particle size) (America). The mobile phase of AmB analysis was acetonitrile-water (43 : 57, containing 0.05% TFA) at a flow-rate of 1 ml min^−1. Chromatography was carried out at 30°C and the detector wavelengths were set at 383 nm. The mobile phase of Dex analysis was acetonitrile-water (45 : 55, containing 0.05% TFA) at a flow rate of 1 ml min^−1. Chromatography was carried out at 30°C and the detector wavelengths were set at 240 nm. The experiment was conducted in three parallel experiments. […] Mt/M∞ is the fractional drug release, Mt is the amount of drug released at time t, M∞ is the maximum amount of drug released at time ∞, t is the release time, k is a rate constant of kinetic release and n is the diffusion exponent, characteristic of the drug release mechanism.

[5] = Hydrogel formation (gelation time, minimum gel concentration); format: physicochemical; settings: for minimum gel concentration needed for gelation: PBS solutions at 37°C; for gelation time: room temperature, PBS pH 7.4, 2 equiv. Na2CO3
Experimental: General procedure for the formation of hydrogels: all the compounds dissolved in phosphate-buffered saline (PBS, pH 7.4). 2 equiv. of Na2CO3 (0.1 mol l^−1) were used to neutralize the carboxyl groups (─COOH) of compounds and adjust the pH to neutral. Then the hydrogels were formed at room temperature (22–25°C) or 37°C within 30 min.

[6] = Solubility of hydrogelators in aqueous solutions; settings: water, PBS solutions (pH = 7.4) and culture solutions

Row | Structure (SMILES) | time for which antifungal activity is exhibited in time-kill curves (Candida albicans [2]) | MIC (Candida albicans [1]; 24 h) | MBC (Candida albicans [1]; 48 h) | speed of fungistatic effect in time-kill curves (in words) (Candida albicans [2]) | final drug release percentage of AmB after 12 h ([4]; 2.0 wt% hydrogel) | constant release rate of AmB ([4]; 2.0 wt% hydrogel) | diffusion exponent n of AmB release (Mt/M∞ = k·t^n) ([4]; 2.0 wt% hydrogel) | rate constant k of AmB release (Mt/M∞ = k·t^n) ([4]; 2.0 wt% hydrogel) | final drug release percentage of AmB after 12 h ([4]; 3.0 wt% hydrogel) | constant release rate of AmB ([4]; 3.0 wt% hydrogel) | diffusion exponent n of AmB release (Mt/M∞ = k·t^n) ([4]; 3.0 wt% hydrogel) | rate constant k of AmB release (Mt/M∞ = k·t^n) ([4]; 3.0 wt% hydrogel) | final drug release percentage of AmB after 12 h ([4]; 4.0 wt% hydrogel) | constant release rate of AmB ([4]; 4.0 wt% hydrogel) | diffusion exponent n of AmB release (Mt/M∞ = k·t^n) ([4]; 4.0 wt% hydrogel) | rate constant k of AmB release (Mt/M∞ = k·t^n) ([4]; 4.0 wt% hydrogel) | minimum gel concentration needed for gelation [5] | gelation time [5] | solubility in aqueous solutions (in words) [6] | other results
1 | C[C@@H]1[C@H](O)[C@@H](C)/C=C/C=C/C=C/C=C/C=C/C=C/C=C/[C@H](O[C@@H]2O[C@H](C)[C@@H](O)[C@H](N)[C@@H]2O)C[C@@H]2O[C@](O)(C[C@@H](O)C[C@@H](O)[C@H](O)CC[C@@H](O)C[C@@H](O)CC(=O)O[C@H]1C)C[C@H](O)[C@H]2C(=O)O [AmB, Amphotericin B] | 2 h |  |  |  |  |  |  |  |  |  |  |  |  |  |  |  |  |  |  | MBC (Candida albicans [1]; Candida albicans, C. albicans, 0.1 ml subcultivated on Sabouraud's dextrose agar, 28°C, 48 h, lower than 5 CFU/plate, repeated at least three times, read-out: MBC): 130 µg/mL (≈ 141 µM); MIC (Candida albicans [1]; Candida albicans, C. albicans, serial 2-fold dilution, 14 concentrations prepared in DMF, 1 ml fungal strain 10^18 CFU/tube, 28°C, 200 rpm, 24 h, visible growth, repeated at least three times, read-out: MIC): 4.06 µg/mL (≈ 4.39 µM); MBC (Candida albicans [1]; Candida albicans, supplement Fig. S21, read-out: MBC): 130 µg/mL (≈ 141 µM); MIC (Candida albicans [1]; Candida albicans, supplement Fig. S21, read-out: MIC): 4.06 µg/mL (≈ 4.39 µM); bioavailability [3]: less than 0.9%
2 | C[C@@H]1C[C@H]2[C@@H]3CCC4=CC(=O)C=C[C@]4(C)[C@@]3(F)[C@@H](O)C[C@]2(C)[C@@]1(O)C(=O)CO [Dex, dexamethasone] |  |  |  |  |  |  |  |  |  |  |  |  |  |  |  |  |  |  |  | antifungal effect against C. albicans (in words) (Candida albicans [1]; MIC/MBC test, serial 2-fold dilution, 28°C, 24 h): less antifungal effective
3 | C[C@@H]1[C@H](O)[C@@H](C)/C=C/C=C/C=C/C=C/C=C/C=C/C=C/[C@H](O[C@@H]2O[C@H](C)[C@@H](O)[C@H](N)[C@@H]2O)C[C@@H]2O[C@](O)(C[C@@H](O)C[C@@H](O)[C@H](O)CC[C@@H](O)C[C@@H](O)CC(=O)O[C@H]1C)C[C@H](O)[C@H]2C(=O)NCCCC[C@H](NC(=O)[C@H](CC(=O)O)NC(=O)[C@H](Cc1ccccc1)NC(=O)[C@H](Cc1ccccc1)NC(=O)CCC(=O)OCC(=O)[C@@]1(O)[C@H](C)C[C@H]2[C@@H]3CCC4=CC(=O)C=C[C@]4(C)[C@@]3(F)[C@@H](O)C[C@@]21C)C(=O)N[C@@H](Cc1ccc(O)cc1)C(=O)O [Dex-AmB] | 2 h | 40.1 µg/mL (≈ 19.1 µM) | 643 µg/mL (≈ 306 µM) | exert fungistatic effect more quickly than AmB and Nap-AmB hydrogels | 16.3% | about 0.1123 mg ml^−1 per hour | 0.8265 | about 0.2283 | 19.2% | ~0.1994 mg ml^−1 per hour | 0.6474 | ~0.3669 | 24.4% | ~0.3517 mg ml^−1 per hour | 0.7971 | ~0.6436 | ~2.0 wt% | approximately 30 min | highly soluble | final drug release percentage of Dex after 12 h ([4]; 2.0 wt% hydrogel): 28.5%; constant release rate of Dex ([4]; 2.0 wt% hydrogel): about 0.08359 mg ml^−1 per hour; diffusion exponent n of Dex release (Mt/M∞ = k·t^n) ([4]; 2.0 wt% hydrogel): 0.4404; rate constant k of Dex release (Mt/M∞ = k·t^n) ([4]; 2.0 wt% hydrogel): approximately 0.1211; final drug release percentage of Dex after 12 h ([4]; 3.0 wt% hydrogel): 39.6%; constant release rate of Dex ([4]; 3.0 wt% hydrogel): ~0.1743 mg ml^−1 per hour; diffusion exponent n of Dex release (Mt/M∞ = k·t^n) ([4]; 3.0 wt% hydrogel): 0.3576; rate constant k of Dex release (Mt/M∞ = k·t^n) ([4]; 3.0 wt% hydrogel): ~0.3039; final drug release percentage of Dex after 12 h ([4]; 4.0 wt% hydrogel): 46.8%; constant release rate of Dex ([4]; 4.0 wt% hydrogel): ~0.2867 mg ml^−1 per hour; diffusion exponent n of Dex release (Mt/M∞ = k·t^n) ([4]; 4.0 wt% hydrogel): 0.2587; rate constant k of Dex release (Mt/M∞ = k·t^n) ([4]; 4.0 wt% hydrogel): ~0.6024
4 | C[C@@H]1[C@H](O)[C@@H](C)/C=C/C=C/C=C/C=C/C=C/C=C/C=C/[C@H](O[C@@H]2O[C@H](C)[C@@H](O)[C@H](N)[C@@H]2O)C[C@@H]2O[C@](O)(C[C@@H](O)C[C@@H](O)[C@H](O)CC[C@@H](O)C[C@@H](O)CC(=O)O[C@H]1C)C[C@H](O)[C@H]2C(=O)NCCCC[C@H](NC(=O)[C@H](CC(=O)O)NC(=O)[C@H](Cc1ccccc1)NC(=O)[C@H](Cc1ccccc1)NC(=O)Cc1ccc2ccccc2c1)C(=O)N[C@@H](Cc1ccc(O)cc1)C(=O)O [Nap-AmB] | 2 h |  |  |  | 36.3% | about 0.3188 mg ml^−1 per hour | 0.6874 | approximately 0.2503 | 47.3% | ~0.6114 mg ml^−1 per hour | 0.5722 | ~0.4662 | 62.1% | ~1.015 mg ml^−1 per hour | 0.5481 | ~0.6379 | about 0.5 wt% | 3 min | highly soluble | 
5 | COc1ccc2cc([C@H](C)C(=O)N[C@@H](Cc3ccccc3)C(=O)N[C@@H](Cc3ccccc3)C(=O)N[C@@H](CC(=O)O)C(=O)N[C@@H](CCCCNC(=O)[C@H]3[C@@H]4C[C@@H](O[C@@H]5O[C@H](C)[C@@H](O)[C@H](N)[C@@H]5O)/C=C/C=C/C=C/C=C/C=C/C=C/C=C/[C@H](C)[C@@H](O)[C@@H](C)[C@H](C)OC(=O)C[C@H](O)C[C@H](O)CC[C@@H](O)[C@H](O)C[C@H](O)C[C@](O)(C[C@@H]3O)O4)C(=O)N[C@@H](Cc3ccc(O)cc3)C(=O)O)ccc2c1 [Npx-AmB] | 2 h | 43.7 µg/mL (≈ 23.8 µM) | 349 µg/mL (≈ 190 µM) | exert fungistatic effect more quickly than AmB and Nap-AmB hydrogels | 30.0% | about 0.2406 mg ml^−1 per hour | 0.7428 | approximately 0.2846 | 38.9% | ~0.4837 mg ml^−1 per hour | 0.7784 | ~0.3358 | 51.3% | ~0.8332 mg ml^−1 per hour | 0.7771 | ~0.4387 | ~1.0 wt% | 10 min |  | 
